Measured values as given in PMC12053377.

Target: SARS-CoV-2 S HexaPro (Spike 6P) ectodomain trimer (SARS-CoV-2 | not stated) (UniProt P0DTC2)
Assay: cryo-EM structure

SARS-CoV-2 S HexaPro (Spike 6P) ectodomain trimer (from UniProt P0DTC2 14-1208) (domain or fragment)
stoichiometry N: 3 protomers
